Results published in patent publication US5948653.

Biological target: RecA (Escherichia coli?) (UniProt P0A7G6)
Assay: cell_activity

Sequence of RecA (Escherichia coli?) (P0A7G6 2-353): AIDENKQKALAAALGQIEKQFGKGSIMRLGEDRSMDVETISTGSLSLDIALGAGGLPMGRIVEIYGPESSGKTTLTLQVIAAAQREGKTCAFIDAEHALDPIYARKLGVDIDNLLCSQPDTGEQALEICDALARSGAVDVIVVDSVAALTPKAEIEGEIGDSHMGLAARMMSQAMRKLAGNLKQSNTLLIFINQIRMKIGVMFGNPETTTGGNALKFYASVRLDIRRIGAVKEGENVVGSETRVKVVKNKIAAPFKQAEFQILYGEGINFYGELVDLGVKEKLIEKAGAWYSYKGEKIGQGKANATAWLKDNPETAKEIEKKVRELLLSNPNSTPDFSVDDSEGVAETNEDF

**Q.** Which activity (homologous replacement after microinjection of RecA-coated DNA) does the source give for “CFTR 491-nt fragment (exon 10 and flanking introns) ; CFTR deltaF508 genomic locus” here?
**A.** > 0.00025 frequency

**Q.** With lacZ 276-mer probe ; pMC1lacXpA as the substance, how does the activity (blue NIH3T3 cells (6/168), 0% without RecA, D-loop also seen on agarose gel) read?
**A.** 3.6%
